Experimental data as given in patent publication US20180086841A1 (Merck Sharp & Dohme, published 2018).

Legend:
human CD27 (A59T) [1] = molecular target: T1, human CD27 (A59T) (human, UniProt P26842 21-260); test: cell-based or functional assay
[2] = molecular target: T2, Macaca mulatta CD27 (mmCD27) (Macaca mulatta (rhesus) / Macaca …, UniProt P26842 21-260 (human entry)); test: cell-based or functional assay
T2 chain: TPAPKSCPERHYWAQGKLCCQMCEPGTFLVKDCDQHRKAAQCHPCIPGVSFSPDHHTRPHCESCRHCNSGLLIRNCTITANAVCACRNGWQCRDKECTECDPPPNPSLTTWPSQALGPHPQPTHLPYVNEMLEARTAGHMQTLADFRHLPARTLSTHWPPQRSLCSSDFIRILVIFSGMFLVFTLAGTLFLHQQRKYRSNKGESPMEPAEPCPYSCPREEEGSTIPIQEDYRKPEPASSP

human CD27 [3] = molecular target: T3, human CD27 (human, UniProt P26842 21-260); test: cell-based or functional assay
[4] = molecular target: T2, Macaca mulatta CD27 (mmCD27); test: flow cytometry on transiently transfected CHO-K1 cells
human CD27 [5] = molecular target: T3, human CD27; test: as above
From the text: HsCD27 and MmCD27 were expressed on CHO-K1 by transient transfection.

[6] = molecular target: T4, His9G-tagged cynomolgus CD27 recombinant protein (cynomolgus, limits assumed); test: SPR Biacore 4000, antibody captured on anti-human Fc, His9G-tagged CD27 injected, 1:1 fit;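 note: Double-referenced SPR (blank anti-Fc surface and buffer injection subtracted), KD derived from association and dissociation rate constants, with human and cynomolgus CD27 as analytes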
T4 construct: In-house, transient transfection of HEK293 cells; also called Cyno CD27/His
T4 chain: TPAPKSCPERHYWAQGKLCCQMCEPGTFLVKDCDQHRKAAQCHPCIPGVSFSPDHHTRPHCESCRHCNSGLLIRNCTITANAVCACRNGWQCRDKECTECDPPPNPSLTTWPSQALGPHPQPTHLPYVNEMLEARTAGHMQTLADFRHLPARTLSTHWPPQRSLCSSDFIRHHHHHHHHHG
From the text: (§1) Flow cell spots modified with anti-human Fc antibody but lacking CD27 antibodies were used as reference. […] The chip surface was regenerated with a 30 second injection of 3M MgCl₂ after each injection cycle.
(§2) Data were double referenced by subtracting the response from a blank surface and that from a buffer injection and used for analyzing the rate constant of association (kₐ) and dissociation (kd), and the equilibrium dissociation constant KD. The resulting data sets were fitted with a Langmuir 1:1 binding model using the Biacore 4000 BIAevaluation software, version 1.0 (GE/Biacore).

[7] = molecular target: T5, His9G-tagged human CD27 recombinant protein (human, UniProt P26842 21-191); test: as above
T5 construct: In-house, transient transfection of HEK293 cells; also called Human CD27/His
From the text: as §1, §2

human CD27 [8] = molecular target: T3, human CD27; test: flow cytometry MFI, CD4+ T cells of human PBMC, N=2 donors
Method: (§3) Labeled cells were washed by re-suspending them in 150 ul of staining buffer (SB) followed by centrifugation at 300 g for 5 minutes. Cells were then resuspended in 100 ul of SB containing primary anti-CD27 antibodies at various concentrations, incubated in the dark at 4° C. for 30 minutes, followed by washing and centrifugation steps as previously described. […] Cells were incubated for 30 minutes at 4° C. in the dark, followed by washing and centrifugation steps. Next, cells were stained with a cocktail of phenotypic antibodies for surface markers (CD3, CD4, CD8, CD11b) and incubated for 30 minutes at 4° C. in the dark, followed by washing and centrifugation steps. […] Samples were acquired in a LSR-Fortessa flow cytometer (BD Biosciences) using the high throughput sampler and data analyzed by FlowJo software (Tree Star Inc).

human CD27 [9] = molecular target: T3, human CD27; test: flow cytometry MFI, CD8+ T cells of human PBMC, N=2 donors
Method: as §3

[10] = molecular target: T6, human CD27-Fc fusion protein (human, UniProt P26842 21-191); test: SPR Biacore T200, CD27-Fc amine-coupled, antibody injected, 1:1 Langmuir fit
T6 construct: not shown: Fc part

[11] = molecular target: T7, rhesus macaque CD27-Fc fusion protein (rhesus macaque, UniProt P26842 21-191 (human entry), limits assumed); test: as above
T7 construct: not shown: Fc part
T7 chain: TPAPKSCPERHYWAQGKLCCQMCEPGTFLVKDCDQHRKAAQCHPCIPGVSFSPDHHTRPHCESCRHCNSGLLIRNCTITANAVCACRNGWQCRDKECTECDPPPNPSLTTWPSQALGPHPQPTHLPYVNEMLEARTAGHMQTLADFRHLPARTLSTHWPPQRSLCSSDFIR

[12] = molecular target: T8, human CD27 A59T-Fc fusion protein (human, UniProt P26842 21-191); test: as above
T8 construct: not shown: Fc part
T8 chain: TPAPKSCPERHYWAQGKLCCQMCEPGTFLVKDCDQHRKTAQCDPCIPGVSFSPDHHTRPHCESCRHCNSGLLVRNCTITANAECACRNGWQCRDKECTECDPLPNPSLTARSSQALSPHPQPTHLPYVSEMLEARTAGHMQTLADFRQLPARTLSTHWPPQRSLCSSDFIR

[13] = molecular target: T2, Macaca mulatta CD27 (mmCD27); test: cell-based or functional assay
[14] = molecular target: T2, Macaca mulatta CD27 (mmCD27); test: flow cytometry MFI, CD4+ T cells in rhesus peripheral blood, n=4
Method: (§4) Upon receipt, blood was visually confirmed to be devoid of obvious signs of lysis or clotting. […] Red blood cells (RBCs) were then lysed by incubation with 1.7 mL of Ammonium-Chloride-Potassium red blood cell lysing solution (Life Technologies, catalog no. A10492-01) for 5 minutes. The lysis step was repeated once more with 2 ml of ACK lysing solution, and then again with 300 ml of ACK lysing solution. Cells were then washed after adding 1.7 ml of phosphate buffered saline (PBS) (Hyclone, catalog no. SH30028.02). […] After a final wash in SB, samples were acquired in a LSR-Fortessa flow cytometer (BD Biosciences) using the high throughput sampler and data analyzed by FlowJo software (Tree Star Inc).

human CD27 [15] = molecular target: T3, human CD27; test: flow cytometry MFI, CD8+ T cells in human peripheral blood, n=4
Method: as §4

human CD27 [16] = molecular target: T3, human CD27; test: flow cytometry MFI, CD4+ T cells in human peripheral blood, n=4
Method: as §4

human CD27 [17] = molecular target: T3, human CD27; test: cell ELISA on human CD27 CHOK1 cells, hIgG1
Method: Purified antibodies were assayed for binding to human CD27 expressing CHOK1 cells using a cell-based ELISA format. Human CD27 expressing CHOK1 cells were plated in 96-well tissue-culture plates in 50 μl of DMEM/F12, 10% BCS (bovine calf serum) (CHO-K1 media). Cells were plated at either 2×10⁴ cells/well two days prior to the assay or 4×10⁴ cells/well one day prior to the assay. Media was removed from the wells prior to the assay followed by incubation of mAb in 100 μL fresh culture medium at a starting concentration of 10 μg/mL and 8 step 1:5 serial dilutions (hIgG4 antibodies) or starting concentration of 50 μg/mL and 8 step 1:5 serial dilutions (hIgG1 antibodies). The antibodies were incubated for 30-60 minutes at room temperature and washed 3 times with PBS/0.05% Tween 20 using a cell ELISA washing protocol on the Biotek EL405x Select CW plate washer.

[18] = molecular target: T2, Macaca mulatta CD27 (mmCD27); test: flow cytometry MFI, CD8+ T cells in rhesus peripheral blood, n=4
Method: as §4

human CD27 (A59T) [19] = molecular target: T1, human CD27 (A59T); test: cell ELISA on CD27-transfected CHOK1 cells, n=2
Method: (§5) Purified antibodies were assayed for binding to human CD27 expressing CHOK1 cells, human CD27 A59T expressing CHOK1 cells, and cross-reactivity to rhesus CD27 expressing CHOK1 cells using a cell-based ELISA format. Human CD27 expressing CHOK1 cells, human CD27 A59T expressing CHOK1 cells, and rhesus CD27 expressing CHOK1 cells were plated in 96-well tissue-culture plates in 50 μl of DMEM/F12, 10% BCS and gentamycin (CHO-K1 media). Cells were plated at either 2×10⁴ cells/well two days prior to the assay or 4×10⁴ cells/well one day prior to the assay. Media was removed from the wells prior to the assay followed by incubation of mAb in 100 μL fresh culture medium at a starting concentration of 10 μg/mL and 8 step 1:4 serial dilutions. The antibodies were incubated for 30-60 minutes at room temperature and washed 3 times with PBS/0.05% Tween 20 using a cell ELISA washing protocol on the Biotek EL405x Select CW plate washer. […] Assay plates were washed as above and developed with TMB and stopped with TMB stop solution (KPL cat#50-85-06) or 0.1N phosphoric acid. The plate was read on a Molecular Devices VersaMax plate reader at 450 nm/650 nm. Titration curves were used to determine the half-maximal effective concentration (EC₅₀).

[20] = molecular target: T2, Macaca mulatta CD27 (mmCD27); test: cell ELISA on CD27-transfected CHOK1 cells, n=2
Method: as §5

human CD27 [21] = molecular target: T3, human CD27; test: cell ELISA on CD27-transfected CHOK1 cells, n=2
Method: as §5

human CD27 (A59T) [22] = molecular target: T1, human CD27 (A59T); test: cell-based or functional assay; remark: listed apart in the source
[23] = molecular target: T2, Macaca mulatta CD27 (mmCD27); test: cell-based or functional assay
human CD27 [24] = molecular target: T3, human CD27; test: cell-based or functional assay; remark: listed apart in the source

B1: hCD27.15-4B IgG4 (antibody, V domains shown)
VH: QVQLVQSGAEVKKPGASVKVSCKASGFIIKATYMHWVRQAPGQRLEWMGRIDPANGETKYDPKFQVRVTITADTSASTAYMELSSLRSEDTAVYYCARYAWYFDVWGQGTLVTVSS
VL: DIQMTQSPSSLSASVGDRVTITCRASENIYSFLAWYQQKPGKAPKLLIYHAKTLAEGVPSRFSGSGSGTDFTLTISSLQPEDFATYYCQHYYGSPLTFGQGTKVEIKR
In the case of B1, the “NF-κB-luciferase reporter assay, Fold Change values at 2.5 µg/ml” value (human CD27 (A59T) [1]) is reported as 0.97 fold change, the “NF-κB-luciferase reporter assay, Fold Change values at 2.5 µg/ml” value [2] is reported as 0.99 fold change and the “NF-κB-luciferase reporter assay, Fold Change values at 2.5 µg/ml” value (human CD27 [3]) is reported as 1.82 fold change.

B2: hCD27.15-c4 (antibody, human IgG4 S228P, kappa, V domains shown)
VH: EVRLQQSGADLVKPGASVKLSCTASGFIIKATYMHWVRQRPEQGLEWIGRIDPANGETKYDPKFQVKATITADTSSSTAYLQLNSLTSDDTAVYYCARYAWYFDVWGAGTTVTVSS
VL: DIQMTQSPASLSASVGDTVTITCRASENIYSFLAWYHQKQGRSPQLLVYHAKTLAEGVPSRFSGSGSGTQFSLKINSLQAEDFGSYYCQHYYGSPLTFGAGTKLEVKR
notes: also called hCD27.15 (chimeric c-4); C4-hCD27.15 chimeric antibody
B2: no binding [4]; binds (human CD27 [5]).

B3: 131AVH6VL6-hIgG1 (antibody)
heavy: not shown
light: EIVLTQSPATLSLSPGERATLSCSASSSVSYMHWYQQKPGQAPKRWIYDTSKLASGVPARFSGSGSGTDYSLTISSLEPEDFAVYYCQQWNSYPFTFGQGTKLEIKRTVAAPSVFIFPPSDEQLKSGTASVVCLLNNFYPREAKVQWKVDNALQSGNSQESVTEQDSKDSTYSLSSTLTLSKADYEKHKVYACEVTHQGLSSPVTKSFNRGEC
notes: also called hCD27.131A VH6VL6 huIgG1
B3 showed a Kd [6] of 51.5 nM, a Kd [7] of 65.2 nM and an EC50 (human CD27 [8]) of 0.137 nM. The EC50 (human CD27 [9]) was 0.123 nM, the Kd [10] was 5.1 nM and the Kd [11] was 4.3 nM. For the same binder, the Kd [12] was 7.3 nM, the “NF-κB-luciferase reporter assay, potency against human CD27” value [13] was ~7 fold and the EC50 [14] was 0.17 nM. It also gave an EC50 (human CD27 [15]) of 0.3 nM, an EC50 (human CD27 [16]) of 0.32 nM and an EC50 (human CD27 [17]) of 0.155 nM. The EC50 [18] was 0.22 nM, the EC50 (human CD27 (A59T) [19]) was 0.097 nM and the EC50 [20] was 0.054 nM. The EC50 (human CD27 [21]) was 0.072 nM, the “NF-κB-luciferase reporter assay, EC50” value (human CD27 (A59T) [22]) was 4.72 nM and the “NF-κB-luciferase reporter assay, Emax” value (human CD27 (A59T) [22]) was 3.22 fold change. For the same binder, the “NF-κB-luciferase reporter assay, EC50” value [23] was 0.29 nM, the “NF-κB-luciferase reporter assay, Emax” value [23] was 2.11 fold change and the “NF-κB-luciferase reporter assay, EC50” value (human CD27 [24]) was 2.22 nM. For the same binder, the “NF-κB-luciferase reporter assay, Emax” value (human CD27 [24]) was 2.96 fold change.

B4: 131AVH6VL6-hIgG2 (antibody)
heavy: EIQLVQSGAEVKKPGASVKVSCKASGYTFTNYGMNWVKQAPGQGLKWMGWINTNTGEPTYAEEFKGRFTFTLDTSISTAYMELSSLRSEDTAVYYCAREGDAMDYWGQGTTVTVSSASTKGPSVFPLAPCSRSTSESTAALGCLVKDYFPEPVTVSWNSGALTSGVHTFPAVLQSSGLYSLSSVVTVPSSNFGTQTYTCNVDHKPSNTKVDKTVERKCCVECPPCPAPPVAGPSVFLFPPKPKDTLMISRTPEVTCVVVDVSHEDPEVQFNWYVDGVEVHNAKTKPREEQFNSTFRVVSVLTVVHQDWLNGKEYKCKVSNKGLPAPIEKTISKTKGQPREPQVYTLPPSREEMTKNQVSLTCLVKGFYPSDIAVEWESNGQPENNYKTTPPMLDSDGSFFLYSKLTVDKSRWQQGNVFSCSVMHEALHNHYTQKSLSLSPGK
light: B3 light
notes: also called 131A6 IgG2 (humanized)
With B4 the Kd [10] was 6.4 nM, the Kd [11] was 5.5 nM and the Kd [12] was 8.2 nM.
